B1: 1035211 (antibody, V domains shown)
VH: QVQLQQSGAELARPGASVKMSCKASGYTFTNYTMHWVKQRPGQGLEWIGYINPSSGYTNYNQKFKDKATLTADKSSSTAYMQLSSLTSEDSAVYYCARRNPLYAMDYWGQGTSVTVSS
VL: DIKMTQSPSSMYASLGERVTITCKASQDINSYLNWFQQKPGKSPKTLIYRANRLVDGVPSRFSGSGSGQDYSLTISSLEFEDMGIYYCLQYDEFPYTFGGGTKLEIK
B2: 1035716 (antibody, V domains shown)
VH: EVLLQQSGPELVKPGASVKIPCKASGYTFTDYNMDWVKQSHGKSLEWIGDINPNNGGTIYNQKFKGKATLTVDKSSSTAYMELRSLTSEDTAVYYCAREGYGNYFDYWGQGTTLTVSS
VL: DILLTQSPAILSVSPGERVSFSCRASQSIGTSIHWYQQRTNGSPRLLIKYASESISGIPSRFSGSGSGTDYTLSINSVESEDIADYYCQQSYSWPTTFGAGTKLELK
B3: 1035414 (antibody, V domains shown)
VH: QVQLKQSGAELVRPGASVKLSCKTSGYIFTSYWIHWVKQRSGQGLEWIARIYPGTGNTYYNEKFKGKATLTADKSSTTAYMQLSSLKSEDSAVYFCARGEDNLYYYAMDYWGQGTSVTVSS
VL: NIVLTQSPASLAVSLGQRATISCRASESVDSYGTSFMHWYQQKPGQPPKLLIYLASNLESGVPASFSGSGSRTDFTLTIDPVEADDAATYYCQQNNEDPWTFGGGTKLEIK
B4: 1035752 (antibody, V domains shown)
VH: QVQLQQPGAELVRPGASVKMSCKASGYTFTSHSIHWVKQTPGQGLEWIGAVYPGNGDTSYYQKFKGKATLTADKSSSTAYMHLSSLTSEDSAVYYCARDGYSDYYAMDCWGQGTSVTVSS
VL: DIVMTQSQKFMSTSVGDRVSVTCKASQNVGTNVAWYQQKPGQSPKALIYSASYRYSGVPDRFTGSGSGTDFTLTINNVQSEDLAEYFCQQYNRYPWTFGGGTKLEIK
B5: 1035755 (antibody, V domains shown)
VH: EVQLQQSGAELVRPGALVKLSCKASGFNIKDYYMHWVKQRPEQGLEWIGWIDPENGNSIYDPKFQGKASITADTSSNTAYLQLSSLTSEDTAVYYCATPSATSYFDYWGQGTTLTVSS
VL: QIVLTQSPAIMSASPGEKVTISCSASSSVSYMYWYQQKPGSSPKPWIYRTSNLASGVPARFSGSGSGTSYSLTISSMEAEDAATYYCQQYHSYPYMYTFGGGTKLEIK
B6: 1035433 (antibody, V domains shown)
VH: QVQLQQSGPQLVRPGASVKISCKASGYSFTIYWMHWVQQRPGQGLEWIGMIDPSDSETRLNQKFKDKATLTVDKSSSTAYMQLSSPTSEDSAVYYCARRGDYNFDYWGQGTTLTVSS
VL: DIVMTQAAPSVPATPGESVSISCRSSKSLLHSNGNTYLYWFLQRPGQSPQLLIFRMSNLASGVPDRFSGSGSGTAFTLRISRVEAEDVGVYYCMQHLEYPYTFGGGTKLEIK
B7: 1035423 (antibody, V domains shown)
VH: EVKLEESGGGLVQPGGSMKLSCTASGFTFSDAWMDWVRQSPEKGLEWVAEIRNKANNHATYYAESVKGRFTISRDDSKSSVYLQMNSLRAEDTGIYYCILFITYAMDYWGQGTSVTVSS
VL: DIVLTQSQKFMSTSVGDRVSITCKASQNVRTAVAWYQQKPGQSPKALIYLASNRHTGVPDRFTGSGSGTDFTLTISNVQSEDLADYFCLQHWNYPLTFGSGTKLELK

Each binder was assayed against T1, recombinant SARS-CoV-2 spike S1 RBD (R319-F541), C-terminal 6-His (SARS-CoV-2, UniProt P0DTC2 319-541) (assay: flow cytometry, blocking of binding to hACE-2 cells).

Binder | percent blocking [%]
B1 | 98.7
B2 | 94.6
B3 | 85.2
B4 | 94.5
B5 | 94.1
B6 | 93.7
B7 | 94.1

The binders below were run against rSARS2-B.1.1.7 S aa16-1211 4x aa mut., C-His (SARS-CoV-2, UniProt P0DTC2 16-1211) in the same assay as above.

Binder | percent blocking [%]
B1 | 72.4
B2 | 81.5
B4 | 74.4
B5 | 35.8
B6 | 23.5
B7 | 75.9

Each binder was assayed against IN v2 variant RBD (R319-F541 with L452R, T478K) (SARS-CoV-2, UniProt P0DTC2 319-541) in the same assay as above.

Binder | percent blocking [%]
B1 | 1.7
B2 | 96.5
B3 | 37.4
B4 | 0.8
B5 | 0.9
B6 | 18.4
B7 | 81.4

Each binder was assayed against rSARS2 RBD aa319-541, N439K, C-His (SARS-CoV-2, UniProt P0DTC2 319-541) in the same assay as above.

Binder | percent blocking [%]
B1 | 18.1
B2 | 96.2
B3 | 43
B4 | 53
B5 | 25.2
B6 | 0.9
B7 | 34.6

These binders were tested against rSARS2-B.1.617.2 S aa16-1211 10+4x aa mut., C-His (SARS-CoV-2, UniProt P0DTC2 16-1211) in the same assay as above.

Binder | percent blocking [%]
B1 | 0
B2 | 89.3
B3 | 73.5
B4 | 0
B5 | 0
B6 | 93.8
B7 | 89.5

These binders were tested against rSARS2-B.1.1.7 S aa16-1211 2x aa mut., C-His (SARS-CoV-2, UniProt P0DTC2 16-1211) in the same assay as above.

Binder | percent blocking [%]
B1 | 76.3
B2 | 94.4
B3 | 17.8
B4 | 81.4
B5 | 12
B6 | 82
B7 | 71.1

Each binder was assayed against BR P.1 variant RBD (R319-F541 with K417T, E484K, N501Y), C-terminal 6-His (SARS-CoV-2, UniProt P0DTC2 319-541) in the same assay as above.

Binder | percent blocking [%]
B1 | 0
B2 | 95
B3 | 0.4
B4 | 77.2
B5 | 14.9
B6 | 0
B7 | 22

Molecular target: T1, recombinant SARS-CoV-2 spike S1 RBD …
Assay: as above
Remark: another data set of the same source

Binder | percent blocking [%]
B1 | 98.7
B2 | 94.6
B3 | 85.2
B4 | 94.5
B5 | 94.1
B6 | 93.7
B7 | 94.1

— patent US20230408517A1 (BIO TECHNE, published 2023)
